PMC2708785 (Biochemistry, 2009)

Key:
AUC = molecular target: the molecule itself; test: AUC
crystal structure = molecular target: the molecule itself; test: crystal structure

B1: 2-methyl-3-hydroxypyridine-5-carboxylic acid oxygenase (MHPCO) from Mesorhizobium loti MAFF303099, with N-terminal 6xHis tag (enzyme, UniProt Q988D3 1-379, looked up)
chain: MANVNKTPGKTRRAEVAGGGFAGLTAAIALKQNGWDVRLHEKSSELRAFGAGIYLWHNGLRVLEGLGALDDVLQGSHTPPTYETWMHNKSVSKETFNGLPWRIMTRSHLHDALVNRARALGVDISVNSEAVAADPVGRLTLQTGEVLEADLIVGADGVGSKVRDSIGFKQDRWVSKDGLIRLIVPRMKKELGHGEWDNTIDMWNFWPRVQRILYSPCNENELYLGLMAPAADPRGSSVPIDLEVWVEMFPFLEPCLIEAAKLKTARYDKYETTKLDSWTRGKVALVGDAAHAMCPALAQGAGCAMVNAFSLSQDLEEGSSVEDALVAWETRIRPITDRCQALSGDYAANRSLSKGNMFTPAALEAARYDPLRRVYSWPQ
modifications: selenomethionine in place of methionine (SeMet MHPCO)
AUC
  stoichiometry N: 4
Crystal structure
  stoichiometry N: 2
